According to patent US20150315270A1 (CONSEJO NACIONAL DE INVESTIGATION CIENTIFICA, published 2015):

B1: mMcA-AB1-anti-VEGF-A (mouse monoclonal antibody A-AB1-anti-VEGF-A) (antibody, V domains shown)
VH: QVKLLESGPELKKPGETVKISCKASGYTFTNFGMNWVKQAPGKGLKWMGWINTNTGEPTYVDDFKGRFAFSLETSASSAYLQISNLNNEDTATYFCARYYGSTSVWYFDVWGAGTTVTVSS
VL: ELVMTQTPSSLSASLGDRVTITCRASQDIFNYLNWYQQKPDGPIKLLIYYSSRLHSGVPSRFSGSGSGTDYSLTISNLDREDIATYFCQQGFTLPWTFGGGTKLEIKR
notes: also called mMc-AB1-anti-VEGF-A; mouse AB1 antibody
B2: hMcA-AB1-anti-VEGF-A (humanized monoclonal antibody A-AB1-anti-VEGF-A) (antibody, human IgG1, V domains shown)
VH: QVQLVQSGSELKKPGASVKVSCKASGYTFTNFGMNWVRQAPGQGLEWMGWINTNTGEPTYVDDFKGRFVFSLDTSVSTAYLQISSLKAEDTAVYYCARYYGSTSVWYFDVWGRGTLVTVSS
VL: DIQMTQSPSSLSASVGDRVTITCRASQDIFNYLNWYQQKPGKAPKLLIYYSSRLHSGVPSRFSGSGSGTDFTFTISSLQPEDIATYYCQQGFTLPWTFGQGTKVEIKR
notes: The constant regions come from the vectors pFUSE-CHIg-hG1 (human IgG1 heavy) and pFUSE2-CLIg-hk (human kappa light); also called hMcA-AB1-VEGF-A; humanized mMc-AB1-anti-VEGF-A

Legend:
human VEGF-A165 [1] = biological target: T1, human VEGF-A165 (human, UniProt P15692 207-395); assay: cell-based or functional assay
mouse VEGF-A = biological target: T2, mouse VEGF-A (mouse, UniProt Q00731-2 27-190, limits assumed); assay: ELISA and SPR
T2 sequence (looked up): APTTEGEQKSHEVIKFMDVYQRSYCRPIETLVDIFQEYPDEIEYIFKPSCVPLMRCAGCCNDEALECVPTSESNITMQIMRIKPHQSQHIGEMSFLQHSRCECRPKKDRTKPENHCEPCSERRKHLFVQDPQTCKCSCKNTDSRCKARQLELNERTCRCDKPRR

human VEGF-B186 = biological target: T3, human VEGF-B186 (human, UniProt P49765 22-207); assay: SPR, Biacore T100, antibody (6.30-0.18 uM) injected over immobilized VEGF-B186 (4000 RU), 1:1 model
T3 construct: also called Vascular endothelial growth factor antigen B
T3 sequence: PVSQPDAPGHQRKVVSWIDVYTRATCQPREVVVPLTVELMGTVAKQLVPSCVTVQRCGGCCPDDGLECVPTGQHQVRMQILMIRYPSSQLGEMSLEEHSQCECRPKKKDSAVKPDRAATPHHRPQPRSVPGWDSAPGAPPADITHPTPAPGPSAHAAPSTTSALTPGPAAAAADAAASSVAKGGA
Method: KA and KD respectively, were determined by kinetic analysis fitting a 1:1 interaction model using biacore T100 Evaluation software.

human VEGF-A165 [2] = biological target: T1, human VEGF-A165; assay: SPR, Biacore T100, kinetic analysis, 1:1 model
human VEGF-A165 [3] = biological target: T1, human VEGF-A165; assay: SPR, BIAcore T100, kinetic analysis, 1:1 model
Method: Affinity and Dissociation Constants, KA and KD, respectively, were determined by kinetic analysis fitting a 1:1 interaction model using the BIAcore T100 evaluation software.

Row | IC50, HUVEC proliferation assay (human VEGF-A165 [1]) [µg/mL] | IC50 in the HUVEC proliferation assay against that of bevacizumab (human VEGF-A165 [1]) [fold lower] | binding result (mouse VEGF-A) | koff (human VEGF-B186) [s⁻¹] | kon (human VEGF-B186) [M⁻¹ s⁻¹] | Kd (human VEGF-A165 [2]) [nM] | koff (human VEGF-A165 [2]) [s⁻¹] | kon (human VEGF-A165 [2]) [M⁻¹ s⁻¹] | Ka (human VEGF-A165 [3]) [M⁻¹] | Kd (human VEGF-A165 [3]) [nM] | koff (human VEGF-A165 [3]) [s⁻¹] | kon (human VEGF-A165 [3]) [M⁻¹ s⁻¹] | Binder
1 | ~0.011 | 5 | no binding | 0.00571 | 32800 | 0.0053 | 9.9e-05 | 1.87e+07 |  |  |  |  | B1
2 | ~0.019 | 3 | no binding |  |  |  |  |  | 9.24e+09 | 0.109 | 0.000421 | 3.83e+06 | B2
